From US20160002317A1 come the findings set out here.

The target in this test is mAG (monomeric Azami-Green) with C-terminal E. coli BirA biotinylation motif and 6xHis tag. As to the kind of experiment: capture of lambda phage on MACS streptavidin beads prebound with biotinylated mAG1; background control.

Turning to “phage uninduced (control) for α-mAG1 Fab::calmodulin expression”, the column output (phage (of 5.5×107 added)) was 20000.
